# From article PMC6513753 (Nature chemical biology, 2018)
# B1: nepetalactol-related short-chain dehydrogenase/reductase 3 (NEPS3) from Nepeta mussinii (enzyme)
# chain: MANNSVMMKKKLEGKVAIVTGGASGIGEATARLFVKYGARAVVIADIQSELGRSVAESIGKERCSFVQCDVADEEQVKSMIEWTATTYGGLDVMFSNAGVLNSAAQTVKDLDLPLFDKVMRVNTRGAAVCVKQAARKMVELGRGGSIICNAGSSAVRGAHGVTDYVMSKHAVIGLVRSASMQLGAHSIRVNSVSPMAVATPLTRNQGISTPDDVQKFLMPFISLKGVPPTAEQVAEAAAFLGSDEAAFVTGHDLPVDGGVLCMPFLLGSA
# Target: the molecule itself
# Experiment: crystal structure
protein,measurement,value
B1,stoichiometry N,4
